In one series the target is T1, C-reactive protein (CRP) (UniProt P02741 19-224).
T1 sequence: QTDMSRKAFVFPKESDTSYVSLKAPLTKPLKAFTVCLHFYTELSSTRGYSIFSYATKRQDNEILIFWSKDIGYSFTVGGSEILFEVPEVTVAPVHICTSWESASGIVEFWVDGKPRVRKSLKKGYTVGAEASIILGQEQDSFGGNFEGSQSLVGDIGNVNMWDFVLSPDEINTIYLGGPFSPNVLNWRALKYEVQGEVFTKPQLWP
Put plainly: fluorescence recovery by displacement of AuNP-ssDNA (bead-immobilized probe); 20 ng/mL; negligible response; PBS pH 7.2, 30 min shaking, temperature not stated; probe folded in 1 mM MgCl2, 1x PBS pH 7.2; serum diluted 10x in PBS. Particulars: protein: commercial; chain copies: 5; label: Texas Red; gold nanoparticle quencher; biotin on streptavidin PS beads; S2 pairs with S1[6-23]; S1 overhangs 5' 5 nt and 3' 17 nt.

A further series has as its target T2, myoglobin (MYO) (UniProt P02144 2-154).
T2 sequence: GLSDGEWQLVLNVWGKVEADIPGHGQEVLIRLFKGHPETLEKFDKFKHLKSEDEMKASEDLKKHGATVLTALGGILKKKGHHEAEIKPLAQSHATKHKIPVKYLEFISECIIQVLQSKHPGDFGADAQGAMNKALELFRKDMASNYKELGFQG
The description is as above. The following applies: protein: commercial; label: Texas Red; gold nanoparticle quencher; biotin on streptavidin PS beads; S2 pairs with S1[6-23]; S1 overhangs 5' 5 nt and 3' 17 nt.

Series [1] concerns the target cardiac troponin I (cTnI) (human, UniProt P19429 2-210). The experiment in a line: fluorescence recovery by displacement of AuNP-ssDNA (bead-immobilized probe); PBS, cTnI 0.2-60 ng/mL; LOD 44 pg/mL; PBS pH 7.2, 30 min shaking, temperature not stated; probe folded in 1 mM MgCl2, 1x PBS pH 7.2; serum diluted 10x in PBS. Particulars: protein: commercial; label: Texas Red; gold nanoparticle quencher; biotin on streptavidin PS beads; S2 pairs with S1[6-23]; S1 overhangs 5' 5 nt and 3' 17 nt.

Sequence of cardiac troponin I (cTnI) (P19429 2-210): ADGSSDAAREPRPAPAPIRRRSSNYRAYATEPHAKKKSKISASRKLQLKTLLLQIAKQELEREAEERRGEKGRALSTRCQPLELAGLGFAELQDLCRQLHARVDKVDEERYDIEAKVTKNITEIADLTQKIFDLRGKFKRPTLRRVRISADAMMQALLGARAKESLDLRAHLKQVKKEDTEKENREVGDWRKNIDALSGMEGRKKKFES

B1: cTnI aptamer probe hybridized with AuNP-ssDNA (mixed)
DNA 1: CGTGCAGTACGCCAACCTTTCTCATGCGCTGCCCCTCTTA
DNA 2: GAGAAAGGTTGGCGTACT
modifications: 5'-biotin and 3'-Texas Red on S1; 5' SH-C6 on S2 (gold nanoparticle)
In the case of B1, the binding result is given as “no binding” in the series with C-reactive protein (CRP), “no binding” with myoglobin (MYO) and “binds” in series [1].
